Target: the molecule itself
Assay: cryo-EM structure; SWELL1-FLAG homomer in 20 mM Tris pH 8, 150 mM NaCl, 0.05% digitonin, ~8 mg/mL on UltrAuFoil grids; C3 symmetry imposed; ~4 Å map

B1: human SWELL1 (LRRC8A) with a C-terminal FLAG-tag (SWELL1-GGG-FLAG) (natural protein, UniProt Q8IWT6 1-810, looked up)
chain: MIPVTELRYFADTQPAYRILKPWWDVFTDYISIVMLMIAVFGGTLQVTQDKMICLPCKWVTKDSCNDSFRGWAAPGPEPTYPNSTILPTPDTGPTGIKYDLDRHQYNYVDAVCYENRLHWFAKYFPYLVLLHTLIFLACSNFWFKFPRTSSKLEHFVSILLKCFDSPWTTRALSETVVEESDPKPAFSKMNGSMDKKSSTVSEDVEATVPMLQRTKSRIEQGIVDRSETGVLDKKEGEQAKALFEKVKKFRTHVEEGDIVYRLYMRQTIIKVIKFILIICYTVYYVHNIKFDVDCTVDIESLTGYRTYRCAHPLATLFKILASFYISLVIFYGLICMYTLWWMLRRSLKKYSFESIREESSYSDIPDVKNDFAFMLHLIDQYDPLYSKRFAVFLSEVSENKLRQLNLNNEWTLDKLRQRLTKNAQDKLELHLFMLSGIPDTVFDLVELEVLKLELIPDVTIPPSIAQLTGLKELWLYHTAAKIEAPALAFLRENLRALHIKFTDIKEIPLWIYSLKTLEELHLTGNLSAENNRYIVIDGLRELKRLKVLRLKSNLSKLPQVVTDVGVHLQKLSINNEGTKLIVLNSLKKMANLTELELIRCDLERIPHSIFSLHNLQEIDLKDNNLKTIEEIISFQHLHRLTCLKLWYNHIAYIPIQIGNLTNLERLYLNRNKIEKIPTQLFYCRKLRYLDLSHNNLTFLPADIGLLQNLQNLAITANRIETLPPELFQCRKLRALHLGNNVLQSLPSRVGELTNLTQIELRGNRLECLPVELGECPLLKRSGLVVEEDLFNTLPPEVKERLWRADKEQA
notes: SWELL1 (LRRC8A), human, UniProt Q8IWT6, cDNA Origene #RC208632; the abstract calls it full-length; the model holds residues 15-68, 94-174, 232-802 (inner subunit) and 15-68, 94-175, 214-802 (outer subunit); Homohexamer (trimer of dimers); The solubilization buffer held 2 mg/mL iodoacetamide; One endogenous SWELL1 allele remained intact in the expression cell line; also called SWELL1-FLAG; …
stoichiometry N: 6

From paper PMC6086657, “Structure of the human volume regulated anion channel” (eLife, 2018)
